US20220033515A1 (Genentech, published 2022)

Key:
[1] = biological target: T1, HER2 extracellular domain (Her2-ECD) (human, UniProt P04626 23-652); assay: Biacore SPR
T1 construct: extracellular domain; also called hHER2 extracellular domain (ECD)

[2] = biological target: T2, human death receptor 5 (hDR5) (human, UniProt O14763 56-210); assay: ELISA on immobilised target
T2 construct: also called DR5 long; hDR5-1f

[3] = biological target: T3, hVEGF-C (human, UniProt P49767 103-227); assay: ELISA on immobilised target
T3 sequence (looked up): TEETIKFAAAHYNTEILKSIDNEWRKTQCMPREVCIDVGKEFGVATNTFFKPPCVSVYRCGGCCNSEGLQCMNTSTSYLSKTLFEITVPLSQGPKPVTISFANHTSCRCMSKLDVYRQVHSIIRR

[4] = biological target: T4, hVEGF-D (human, UniProt O43915 93-201); assay: ELISA on immobilised target
T4 sequence (looked up): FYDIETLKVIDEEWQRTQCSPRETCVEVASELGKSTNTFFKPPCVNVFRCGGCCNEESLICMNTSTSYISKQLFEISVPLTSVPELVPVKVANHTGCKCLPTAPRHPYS

[5] = biological target: T5, epidermal growth factor receptor extracellular domain (hEGFR) (human, UniProt P00533 25-645); assay: ELISA on immobilised target
T5 construct: extracellular domain

[6] = biological target: bovine serum albumin (BSA) (bovine, UniProt P02769 25-607); assay: ELISA on immobilised target
Sequence of bovine serum albumin (BSA) (P02769 25-607 limits assumed): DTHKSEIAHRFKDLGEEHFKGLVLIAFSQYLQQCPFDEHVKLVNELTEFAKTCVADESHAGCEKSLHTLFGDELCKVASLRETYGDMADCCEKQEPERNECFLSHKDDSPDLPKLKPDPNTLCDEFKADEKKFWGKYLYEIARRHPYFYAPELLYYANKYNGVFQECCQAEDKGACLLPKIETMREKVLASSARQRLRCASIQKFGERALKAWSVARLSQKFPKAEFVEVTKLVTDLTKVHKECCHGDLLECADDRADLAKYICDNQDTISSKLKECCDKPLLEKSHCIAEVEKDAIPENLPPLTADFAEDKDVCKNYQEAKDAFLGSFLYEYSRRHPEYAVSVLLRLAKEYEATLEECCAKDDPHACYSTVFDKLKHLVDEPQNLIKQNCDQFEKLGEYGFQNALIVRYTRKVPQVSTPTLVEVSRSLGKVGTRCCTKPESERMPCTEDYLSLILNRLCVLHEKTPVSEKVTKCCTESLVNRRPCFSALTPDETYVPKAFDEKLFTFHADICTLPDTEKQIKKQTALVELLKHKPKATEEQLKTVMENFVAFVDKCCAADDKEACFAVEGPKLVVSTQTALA

B1: bH1 hIgG (antibody, V domains shown)
VH: not shown
VL: DIQMTQSPSSLSASVGDRVTITCRASQDIPRSISGYVAWYQQKPGKAPKLLIYWGSYLYSGVPSRFSGSGSGTDFTLTISSLQPEDFATYYCQQHYTTPPTFGQGTKVEIKR
notes: also called bH1 IgG; not shown: rest of the human IgG heavy chain constant region
Kd [1]: 9.8 nM | binding result [2]: no binding (tested: 100 nM (text)) | binding result [3]: no binding (tested: 100 nM (text)) | binding result [4]: no binding (tested: 100 nM (text)) | binding result [5]: no binding (tested: 100 nM (text)) | binding result [6]: no binding (tested: 100 nM (text))
